Experimental data: PMC10397247
Blank lines part the entries; values can stand above or below the binder they belong to.

Tests used:
Core_IIIN-es_KKKE = biological target: T1, Core_IIIN-es_KKKE; test: two-hybrid library CCmax; conditions: mean of both orientations;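 further: natural log of median RNA to DNA barcode read ratio; higher means stronger binding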
T1 chain: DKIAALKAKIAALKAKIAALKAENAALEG

Core_IIII-es_KKKE = biological target: T2, Core_IIII-es_KKKE; test: two-hybrid library CCmax; conditions: mean of both orientations;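 further: natural log of median RNA to DNA barcode read ratio; higher means stronger binding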
T2 chain: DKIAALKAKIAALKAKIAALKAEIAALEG

GCN4-SR [1] = biological target: T3, GCN4-SR; test: two-hybrid library CCNG1;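 further: natural log of median RNA to DNA barcode read ratio; higher means stronger binding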
T3 chain: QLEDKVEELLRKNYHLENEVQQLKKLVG

GCN4-SR [2] = biological target: T3, GCN4-SR; test: two-hybrid library CCmax;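 further: natural log of median RNA to DNA barcode read ratio; higher means stronger binding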

interaction score (Core_IIIN-es_KKKE): 2.19
Binder: DEIAALEAEIAALEAEIAALEAKNAALKG [Core_IIIN-es_EEEK]

interaction score (Core_IIII-es_KKKE): 2.4
Binder: DEIAALEAEIAALEAEIAALEAKIAALKG [Core_IIII-es_EEEK]

interaction score (GCN4-SR [1]): -2.35
interaction score (GCN4-SR [2]): -1.35
Binder: QLEDKVEELLRKNYHLENEVQQLKKLVG [GCN4-SR]
